Data: US7947279B2, “Peptide having hydrolase activity” (The Trustees of Columbia University in the City of New York, priority 2005, dated 2011)
“Also recorded” adds a separate entry of the source.

Tests used:
ubiquitin-AMC = assay: Hydrolysis of ubiquitin-AMC by TAT fusion proteins; format: biochemical; conditions: 20 nM TAT fusion proteins
Method: Measurement of Hydrolase Activity: The hydrolase assay was performed as previously described (Nishikawa et al., 2003) with slight modifications. Briefly, hippocampal tissue was treated with tissue protein extraction reagent (T-PER; Pierce) containing freshly added EDTA-free protease inhibitors. Homogenate was centrifuged at 10,000 rpm for 5 min. Protein concentration was measured in the supernatant using the BCA protein assay reagent. In some experiments hydrolysis was initiated by adding 10 μl of 20 nM Uch-L1 or Uch-L3 (Boston Biochem). The hydrolase assay was performed using fluorogenic ubiquitin-7-amino-4-methylcoumarin (ubiquitin-AMC) (Boston Biochem) as a substrate. The substrate was diluted in assay buffer (50 mM Tris-HCL, 0.5 mM EDTA, 5 mM dithiothreitol and 0.1 mg/ml ovalbumin, pH 7.6). […] The reaction was monitored using a fluorescence spectrophotometer (CytoFluor Series 4000, ABI Inc) at 25° C. The free AMC fluorophore was excited at 380 nm and measured at 460 nm. Hydrolase activity was expressed as relative fluorescence intensity/min (Dang et al., 1998). In some experiments, hydrolysis was also measured on the soluble and insoluble fractions (FIG. 28D). In a group of experiments hydrolysis was measured by mixing ubiquitin-AMC with 20 nM TAT fusion proteins (FIG. 27C). […]

[1] = system: CA1-LTP in hippocampal slices; assay: CA1-LTP in hippocampal slices (theta-burst); format: cell-based, mouse; conditions: for Aβ-induced impairment of CA1-LTP (words): fusion protein 20 nM 1 hr, then plus Aβ 200 nM 20 min; for LTP in slices not treated with Aβ (words): fusion protein 20 nM, 1 hr, WT slices, 3 theta-burst trains
mice (WT and APP/PS1) = assay: Contextual and cued fear conditioning; format: in vivo, mouse; conditions: 0.02-0.04 g/kg i.p.; 1, 7, 14 and 21 days after training
Method: Behavioral Studies: Fear conditioning was performed in a conditioning chamber as previously described (Bourtchuladze et al., 1994; Gong et al., 2004). For contextual and cued fear conditioning mice were placed in the conditioning chamber for 2 min before the onset of a discrete tone (CS) (a 30 sec sound at 2800 Hz and 85 dB). In the last 2 sec of the CS, mice were given a foot shock (US) of 0.50 mA for 2 sec through the bars of the floor. After the CS/US pairing, the mice were left in the conditioning chamber for another 30 sec and then placed back in their home cages. Freezing behavior, defined as the absence of all movement except for that necessitated by breathing, was scored using Freezeview software. To evaluate contextual fear learning, freezing was measured for 5 min in the chamber in which the mice were trained 24 hrs after training. To evaluate cued fear conditioning, following contextual testing, the mice were placed in a novel context (triangular cage with smooth flat floor and with vanilla odorant) for 2 min (pre-CS test), after which they were exposed to the CS for 3 min (CS test), and freezing was measured. To evaluate the contextual fear over time, mice were placed for 5 min in the chamber in which the mice were trained 7- 14- 21-days after training. Sensory perception of the shock was determined through threshold assessment. Each animal was placed individually into the conditioning chamber. […] Animal behavior was evaluated for the first visible response to the shock (flinch), the first extreme motor response (run/jump), and the first vocalized distress (scream). Threshold to flinching, jumping, and screaming was quantified for each animal by averaging of the shock intensity at which each animal manifested a behavioral response of that type to the foot shock. Visual, motor, and motivation skills were also tested with visible platform training by measuring the time and the speed to reach a visible platform placed within a pool filled with water (Gong et al., 2004). Both time to reach the platform and swimming speed were recorded and analyzed with a video tracking system (HVS-2020, HVS Image, UK). No difference was observed among different groups of mice in the experiments in which fear conditioning was tested both in the presence of LDN and TAT fusion proteins. To decide the time of administration of LDN, experiments were performed in which the inhibitor was injected intra-peritoneally at different intervals (4 hrs before, 1 hr before, 1 hr after and 4 hrs after) from the electric shock. During the training phase, no difference was found in the freezing of LDN- or vehicle-injected mice.

phospho-CREB at Ser-133 = assay: Phospho-CREB (Ser-133) Western blot in hippocampal cultures; format: cell-based, rat
Method: Western Blotting: Protein levels were assessed using standard procedures. Protein extraction was performed using buffer with and without detergent. For the extraction of protein using detergent, hippocampal tissues and cultured hippocampal neurons (5 DIV) were homogenized in RIPA buffer (50 mM Tris-HCl pH 7.4, 1% Triton X-100, 1% sodium deoxycholate, 0.1% SDS, 150 mM sodium chloride, 10 mM sodium fluoride, 30 mM sodium pyrophosphate, 50 mM sodium orthovanadate) containing 1× complete protease inhibitor (Roche) and 1 mM phenylmethylsulfonyl fluoride (PMSF). For extraction of proteins without detergent, hippocampal extracts were homogenized with disposable dounce homogenizers in buffer A, containing 10 mM HEPES pH 7.3, 300 mM sucrose, protease 1× complete protease inhibitor (Roche) and PMSF. After centrifugation at 10,000×g supernatant proteins were resolved on a 8% or 4-20% gradient Tris-Glycine gel, transferred onto PVDF or nitrocellulose membrane and blocked in 5% skim milk in PBS-Tween 0.1% (PBS-T). Membranes were probed with primary antibodies, and after washing with PBS-T incubated with an appropriate HRP-conjugated secondary antibody. The following antibodies were used: mouse monoclonal anti-ubiquitin (Chemicon), rabbit polyclonal anti-pCREB (Upstate Biotech.), rabbit polyclonal anti-PKA-RIIα (Santa Cruz Biotech. Inc), mouse monoclonal anti-Uch-L1 (Novocastra), monoclonal mouse anti-HA (Santa Cruz Biotech. Inc), and anti-PKA IIα. Detection was performed using HRP-conjugated secondary antibodies (Pierce, Rockford, Ill.). To control loading and transfer, protein immunoreactivities were normalized against total extracellular signal-regulated protein kinases (ERK1/2) levels with a rabbit analyzed using a rabbit polyclonal anti-ERK1/2 antibody (Cell Signaling Technology, Inc). NIH IMAGE was used to analyze the scanned blots and quantify the intensity of the protein signals.
Preparation of Cell Cultures. Hippocampal cell cultures were prepared as previously described (Vitolo et al., 2002). In cell culture experiments fetuses at embryonic day 18 from timed pregnant Sprague-Dawley rats (Taconic Farms) were used. Fetuses were sacrificed and the hippocampi removed. Neurons were then dissociated, plated on 6 well-plates coated with poly-L-lysine and maintained in a defined serum-free medium containing minimum essential medium supplemented with N-2, glucose, albumin, pyruvic acid, antibiotics and antimycotics. […] 5 DIV cells were used for the experiments.

[2] = system: SY5Y neuroblastoma cells transfected with a degron CL1-GFP expression vector; assay: Proteasome reporter assay (GFP^u); format: cell-based, human; conditions: substance alone
Method: Proteasome reporter assays. In this cell line, human neuroblastoma SH-SY5Y cells were permanently transfected with reporter construct consisting of green fluorescent protein (GFP) conjugated at its C-terminus to a short degron sequence (CL-1) (Gilon et al., 1998). […] The SY5Y-GFP^u cells were grown in 1×DMEM (Invitrogen) supplemented with 15% fetal bovine serum (JRH), 1× penicillin/streptomycin (Gibco). After indicated treatments, GFP^u concentrations were assayed by densitometric analysis of immunoblots of total protein extracts (10 ug/lane) using monoclonal GFP antibodies (Santa Cruz Biotechnology) and visualized with HRP-conjugated secondary antibodies and ECL (Pierce). Loading equalization was normalized by probing blots with anti-ERK antibodies (Santa Cruz Biotechnology).

B1: TAT-HA-Uch-L1(C90S): mutant TAT-HA-Uch-L1 construct, C90S (hydrolase site), made by site-directed mutagenesis (protein, UniProt P09936 1-220, looked up, variant C90S)
Ubiquitin carboxyl-terminal …: MQLKPMEINPEMLNKVLSRLGVAGQWRFVDVLGLEEESLGSVPAPACALLLLFPLTAQHENFRKKQIEELKGQEVSPKVYFMKQTIGNSSGTIGLIHAVANNQDKLGFEDGSVLKQFLSETEKMSPEDRAKCFEKNEAIQAAHDAVAQEGQCRVDDKVNFHFILFNNVDGHLYELDGRMPFPVNHGASSEDTLLKDAAKVCREFTEREQGEVRFSAVALC
modifications: fused to HIV TAT transduction peptide and HA tag
notes: mutant TAT-HA-Uch-L1 construct, C90S (hydrolase site), made by site-directed mutagenesis
- Uch (hydrolase) activity of TAT constructs (words) (ubiquitin-AMC): little or no activity
- Uch (hydrolase) activity of TAT constructs (words) (ubiquitin-AMC; listed as TAT-HA-Uch-L1 (C90S)): inactive
- Aβ-induced impairment of CA1-LTP (words) [1]: failed to protect against LTP suppression; also recorded: failed to reverse
- Aβ-induced impairment of CA1-LTP (words) ([1]; listed as TAT-HA-Uch-L1(C90S) peptide): did not protect against LTP suppression
- LTP in slices not treated with Aβ (words) [1]: severely impaired potentiation
- LTP in slices not treated with Aβ (words) ([1]; listed as Mutant (C90S) TAT-Uch-L1 fusion protein): reduces LTP
- LTP in slices not treated with Aβ (words) ([1]; listed as mutant (C90S) TAT-Uch-L1): dramatically reduced LTP
- amounts of potentiation ([1]; fusion protein alone, no Aβ): 152.38±10.90%
- decrease in potentiation compared to vehicle or TAT-HA-iUch-L1 ([1]; fusion protein alone, no Aβ): ~60%
- baseline transmission in slices without tetanic stimulation ([1]; non-tetanized slices): Neither TAT-HA-Uch-L1(C90S) nor TAT-HA-Uch-L1(S18Y) affected baseline; also recorded: did not affect basal transmission
- contextual learning in WT mice (mice (WT and APP/PS1)): impaired both contextual learning and its decay; also recorded: worsened contextual conditioning performance
- glutamate-induced increase in CREB phosphorylation (phospho-CREB at Ser-133; cultures not treated with Aβ): blocked the glutamate-induced increase in CREB phosphorylation
- effect of Aβ on glutamate-induced CREB phosphorylation (words) (phospho-CREB at Ser-133; fusion protein 100 nM, 3 μM Aβ 24 hrs, 50 μM glutamate 15 min): did not allow the enhancement of phospho-CREB
- GFP^u levels [2]: increase in GFP^u
